# T1: GST-T7-ORF6-His (SARS-CoV-2, UniProt P0DTC6 1-61)
# T1 construct: ORF6 protein of SARS-CoV-2, full-length recombinant protein; pGEX-T7-ORF6-His; T7 tag lies between GST and ORF6; also called GST-ORF6; not shown: GST, N-terminal, kept; T7, N-terminal, kept; His6, C-terminal, kept
# T1 sequence: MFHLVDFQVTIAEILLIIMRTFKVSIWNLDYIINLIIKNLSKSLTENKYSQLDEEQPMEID
# Molecular target: T1, GST-T7-ORF6-His
# Details: both partners purified
binder,measurement,value
"T7-ORF6-His (natural protein, ORF6 protein of SARS-CoV-2, full-length recombinant protein; From pGEX-T7-ORF6-His (pGEX-6p-1 backbone); also called SARS-CoV-2 ORF6 protein; not shown: GST, N-terminal, cleaved; T7, N-terminal, kept; His6, C-terminal, kept) MFHLVDFQVTIAEILLIIMRTFKVSIWNLDYIINLIIKNLSKSLTENKYSQLDEEQPMEID",binding result,binds
